# T1: biotinylated hIL-33 protein (R&D systems, Cat #3625-IL/CF) (human, UniProt O95760 112-270, biotinylated (sites not given))
# T1 construct: Same commercial protein as m21, biotin-labelled; also called biotin-hIL-33
# T1 sequence (looked up): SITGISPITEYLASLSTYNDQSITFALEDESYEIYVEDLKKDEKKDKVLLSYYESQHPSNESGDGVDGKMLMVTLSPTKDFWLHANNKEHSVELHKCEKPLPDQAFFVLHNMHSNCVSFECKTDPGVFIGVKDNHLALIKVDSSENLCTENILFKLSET
# T2: human IL-33 (R&D Systems, #3625-IL-010/CF) (human, UniProt O95760 112-270)
# T2 construct: Commercial recombinant protein; also called hIL-33; interleukin-33
# T2 sequence (looked up): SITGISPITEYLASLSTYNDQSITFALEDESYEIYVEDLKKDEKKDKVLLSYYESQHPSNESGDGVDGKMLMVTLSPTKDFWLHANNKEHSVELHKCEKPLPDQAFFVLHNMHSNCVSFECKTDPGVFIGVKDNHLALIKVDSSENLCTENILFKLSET
# T3: cynomolgus monkey IL-33 expressed with a C-terminal hexahistidine tag (cynomolgus monkey)
# T3 construct: also called MfIL-33-6His; Mf-IL-33-6His
# T3 chain: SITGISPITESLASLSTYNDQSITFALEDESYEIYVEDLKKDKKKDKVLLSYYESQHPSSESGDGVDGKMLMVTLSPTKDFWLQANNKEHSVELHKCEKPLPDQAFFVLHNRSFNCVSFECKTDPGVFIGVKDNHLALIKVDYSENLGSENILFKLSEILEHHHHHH
# Experiments:
# [1] = molecular target: T1, biotinylated hIL-33 protein (R&D …); test: competition ELISA, 30 pM biotin-hIL-33 on coated hST2-hFc
# Method: (§1) The ability of anti-IL-33 antibodies to block either human IL-33 (hIL-33) or cynomologus monkey IL-33 binding to the human ST2 receptor was measured using a competition sandwich ELISA. […] The antibody/IL-33 mixtures were incubated for 1 hour at room temperature before they were transferred to the hST2-hFc-coated microtiter plates. After incubating for 1 hour at room temperature, the wells were then washed, and plate-bound biotin-hIL-33 was detected with streptavidin conjugated with horse-radish peroxidase (HRP) (Thermo Scientific, Cat # N200), and plate-bound MfIL-33-6His was detected with a HRP conjugated anti-His monoclonal antibody (Qiagen, #34460). All samples were developed with a TMB solution (BD biosciences, #51-2607KC) to produce a colorimetric reaction and then quenched by acidification with 1M sulfuric acid before measuring absorbance at 450 nm on a Victor X5 plate reader. Data analysis was performed using a sigmoidal dose-response model within Prism™ software. […] Percent blockade was calculated as the ratio of the reduction in signal observed in the presence of antibody relative to the difference between the signal with IL-33 alone and background (signal from HRP-conjugated secondary antibody or streptavidin alone). The absorbance measured for the constant concentration of biotin-hIL-33 or MfIL-33-6His alone is defined as 0% blocking and the absorbance measured for no added IL-33 is defined as 100% blocking.
# [2] = molecular target: T2, human IL-33 (R&D Systems, …); test: BLI; hIL-33 pre-mixed with mAb-2 H1M9565N
# Method: (§2) Binding competition between a panel of different anti-IL-33 monoclonal antibodies was determined using a real time, label-free bio-layer interferometry assay on an Octet® HTX biosensor (ForteBio, A Division of Pall Life Sciences). The experiment was performed at 25° C. using a buffer of 0.01M HEPES pH7.4, 0.15M NaCl, 0.05% v/v Surfactant Tween-20, and 0.1 mg/ml BSA (HBS-ET kinetics buffer) with the plate shaking at a speed of 1000 rpm. To assess whether two antibodies were able to compete with one another for binding to human IL-33, a pre-mix assay format was used where 100 nM of human IL-33 (R&D Systems; #3625-IL-010/CF) was pre-mixed with 500 nM of different anti-IL-33 monoclonal antibodies (subsequently referred to as mAb-2) for at least 2 hours prior to running the binding competition assay. […] Following the capture step, unoccupied anti-mouse Fc polyclonal antibody and anti-human Fc polyclonal antibody on the Octet biosensors were saturated by submerging them for 4 minutes into wells containing 200 μg/mL of a non-specific monoclonal antibody with a mouse Fc or with a human Fc, respectively. Finally, the Octet biosensors were immersed for 4 minutes into wells containing the pre-mixed samples of 100 nM of human IL-33 and 500 nM of mAb-2. At the end of each cycle, the non-covalently captured anti-IL-33 antibodies along with the bound pre-complex of human IL-33 and mAb-2 were removed from the biosensors using three alternate 20 second immersions into 10 mM HCl followed by submerging into HBS-ET kinetics buffer. The biosensors were washed in HBS-ET kinetics buffer in between every step of the experiment. The real-time binding response was monitored during the binding events, and the binding response (in units of nm) at the end of every step was recorded.
# [3] = molecular target: T2, human IL-33 (R&D Systems, …); test: BLI; hIL-33 pre-mixed with mAb-2 Isotype control 1
# Method: as §2
# [4] = molecular target: T4, pre-formed complex of hIL-33 and captured hST2-MMH (human, UniProt O95760 112-270); test: SPR 25C, 100 nM mAb over hIL-33/hST2-MMH complex
# T4 construct: Ligand-receptor complex on the sensor: hST2-MMH captured by anti-myc mAb and saturated with 100 nM hIL-33; also called hIL-33 pre-complexed with hST2-MMH
# Method: The ability of anti-IL-33 antibodies to bind to a pre-formed complex of IL-33 with ST2 was tested using Biacore T-200 instrument equipped with a real-time surface plasmon resonance biosensor. The experiment was performed at 25° C. with a running buffer composed of 0.01M HEPES pH 7.4, 0.15M NaCl, 3 mM EDTA, and 0.05% v/v Surfactant Tween-20 (HBS-ET). […] The captured hST2-MMH surface was then saturated by injecting 100 nM of human IL-33 (hIL-33; R&D Systems, #3625-IL-010/CF) for 3 minutes followed by a 3 minute injection of a 100 nM solution of the anti-IL-33 monoclonal antibody. The real-time binding response was monitored during the entire course of the experiment, and the observed binding response at 3 minutes after injection of anti-IL-33 antibody to the pre-formed complex of hIL-33 and captured hST2-MMH was recorded and tabulated and shown in Table 7. No non-specific binding of anti-IL-33 monoclonal antibody to the anti-myc tag capture surface was observed.
# [5] = molecular target: T3, cynomolgus monkey IL-33 expressed with …; test: competition ELISA, 150 pM MfIL-33-6His on coated hST2-hFc
# Method: as §1
binder,measurement,setting,value
"H4H9676P (antibody, human IgG4, V domains shown, Human IgG4 Fc (H4H)) VH: EVQLVESGGGLVQPGGSLRLSCSASGFTFSSYAMNWVRQAPGKGLEWVTAISGSGGGTYYADSVKGRFTISRDNSKNSLFLQLNSLRAEDTAVYYCAKQTYTSSWYGGFDIWGQGTMVTVSS VL: DIQMTQSPSSVSASVGDRVTITCRASQGFSSWLAWYQQIPGKAPKLLIYAASRLQSGVPSRFRGSGSGTDFTLTISSLQPEDFATYYCQQANSFPLTFGGGTKVEIK",% Maximum blocking,[1],54%
same,IC50,[1],0.46 nM
same,mAb-1 Binding to the Pre-complex of mAb-2 & hIL-33,[2],0.45 nm
same,mAb-1 Binding to the Pre-complex of mAb-2 & hIL-33,[3],0.11 nm
same,Antibody Binding Response (RU),[4],-1 RU
same,% Maximum blocking,[5],57%
same,IC50,[5],3.2 nM
"H1M9559N (antibody, mouse IgG1, V domains shown, Human variable domains, mouse IgG1 Fc (H1M)) VH: QVQLVESGGGVVQPGRSLRLSCAASGFTFSSYGMHWVRQAPGKGLEWVAVIWYDGRNKYYTDSVKGRFTISRDNSKNTLYLQMDSLRAEDTAVYYCARERYISSYYGGFDPWGQGALVTVSS VL: DIQMTQSPSSVSASVGDRVTITCRASQGISSWLAWYQQKPGKAPKVLIYAASSLQSGVPSRFSGSGSGTDFTLTISSLQPEDFATYYCQQANSFPFTFGPGTKLDIK",% Maximum blocking,[1],88%
same,IC50,[1],0.14 nM
same,mAb-1 Binding to the Pre-complex of mAb-2 & hIL-33,[2],0.35 nm
same,mAb-1 Binding to the Pre-complex of mAb-2 & hIL-33,[3],0.06 nm
same,Antibody Binding Response (RU),[4],-4 RU
same,% Maximum blocking,[5],53%
same,IC50,[5],10 nM
